T1: G9a and GLP (Homo sapiens, UniProt Q96KQ7+Q9H9B1)
T1 sequence (Q96KQ7 2-1210 limits assumed): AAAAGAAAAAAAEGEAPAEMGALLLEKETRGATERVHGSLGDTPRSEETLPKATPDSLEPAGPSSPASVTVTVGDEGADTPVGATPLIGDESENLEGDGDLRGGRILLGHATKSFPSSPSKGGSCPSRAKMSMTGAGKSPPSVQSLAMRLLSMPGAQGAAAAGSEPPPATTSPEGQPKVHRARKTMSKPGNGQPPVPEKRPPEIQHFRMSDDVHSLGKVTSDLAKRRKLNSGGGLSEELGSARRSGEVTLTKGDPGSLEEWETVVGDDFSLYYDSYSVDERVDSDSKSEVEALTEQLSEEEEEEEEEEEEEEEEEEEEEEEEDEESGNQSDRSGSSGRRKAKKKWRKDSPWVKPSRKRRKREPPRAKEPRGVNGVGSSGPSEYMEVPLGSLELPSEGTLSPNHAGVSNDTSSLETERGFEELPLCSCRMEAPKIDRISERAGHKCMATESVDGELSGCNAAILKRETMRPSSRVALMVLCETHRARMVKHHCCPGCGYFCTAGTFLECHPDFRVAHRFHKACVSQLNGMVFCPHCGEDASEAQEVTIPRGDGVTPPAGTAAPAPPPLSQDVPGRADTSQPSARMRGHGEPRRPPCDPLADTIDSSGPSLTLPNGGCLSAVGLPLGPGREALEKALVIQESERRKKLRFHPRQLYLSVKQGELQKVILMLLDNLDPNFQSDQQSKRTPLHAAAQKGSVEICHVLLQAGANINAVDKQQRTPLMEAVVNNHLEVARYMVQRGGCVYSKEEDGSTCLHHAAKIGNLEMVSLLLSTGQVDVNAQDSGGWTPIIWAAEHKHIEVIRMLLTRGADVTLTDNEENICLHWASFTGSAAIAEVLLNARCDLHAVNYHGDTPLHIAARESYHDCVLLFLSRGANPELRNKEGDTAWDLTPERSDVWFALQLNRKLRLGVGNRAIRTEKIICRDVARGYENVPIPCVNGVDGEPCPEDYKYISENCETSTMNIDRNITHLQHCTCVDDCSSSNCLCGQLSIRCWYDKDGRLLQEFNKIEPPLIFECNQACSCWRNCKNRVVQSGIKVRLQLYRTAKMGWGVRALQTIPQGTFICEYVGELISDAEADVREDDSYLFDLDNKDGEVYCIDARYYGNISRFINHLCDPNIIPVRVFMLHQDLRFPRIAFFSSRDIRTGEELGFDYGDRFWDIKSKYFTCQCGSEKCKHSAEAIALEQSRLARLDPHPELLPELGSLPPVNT
T1 sequence (Q9H9B1 2-1298 limits assumed): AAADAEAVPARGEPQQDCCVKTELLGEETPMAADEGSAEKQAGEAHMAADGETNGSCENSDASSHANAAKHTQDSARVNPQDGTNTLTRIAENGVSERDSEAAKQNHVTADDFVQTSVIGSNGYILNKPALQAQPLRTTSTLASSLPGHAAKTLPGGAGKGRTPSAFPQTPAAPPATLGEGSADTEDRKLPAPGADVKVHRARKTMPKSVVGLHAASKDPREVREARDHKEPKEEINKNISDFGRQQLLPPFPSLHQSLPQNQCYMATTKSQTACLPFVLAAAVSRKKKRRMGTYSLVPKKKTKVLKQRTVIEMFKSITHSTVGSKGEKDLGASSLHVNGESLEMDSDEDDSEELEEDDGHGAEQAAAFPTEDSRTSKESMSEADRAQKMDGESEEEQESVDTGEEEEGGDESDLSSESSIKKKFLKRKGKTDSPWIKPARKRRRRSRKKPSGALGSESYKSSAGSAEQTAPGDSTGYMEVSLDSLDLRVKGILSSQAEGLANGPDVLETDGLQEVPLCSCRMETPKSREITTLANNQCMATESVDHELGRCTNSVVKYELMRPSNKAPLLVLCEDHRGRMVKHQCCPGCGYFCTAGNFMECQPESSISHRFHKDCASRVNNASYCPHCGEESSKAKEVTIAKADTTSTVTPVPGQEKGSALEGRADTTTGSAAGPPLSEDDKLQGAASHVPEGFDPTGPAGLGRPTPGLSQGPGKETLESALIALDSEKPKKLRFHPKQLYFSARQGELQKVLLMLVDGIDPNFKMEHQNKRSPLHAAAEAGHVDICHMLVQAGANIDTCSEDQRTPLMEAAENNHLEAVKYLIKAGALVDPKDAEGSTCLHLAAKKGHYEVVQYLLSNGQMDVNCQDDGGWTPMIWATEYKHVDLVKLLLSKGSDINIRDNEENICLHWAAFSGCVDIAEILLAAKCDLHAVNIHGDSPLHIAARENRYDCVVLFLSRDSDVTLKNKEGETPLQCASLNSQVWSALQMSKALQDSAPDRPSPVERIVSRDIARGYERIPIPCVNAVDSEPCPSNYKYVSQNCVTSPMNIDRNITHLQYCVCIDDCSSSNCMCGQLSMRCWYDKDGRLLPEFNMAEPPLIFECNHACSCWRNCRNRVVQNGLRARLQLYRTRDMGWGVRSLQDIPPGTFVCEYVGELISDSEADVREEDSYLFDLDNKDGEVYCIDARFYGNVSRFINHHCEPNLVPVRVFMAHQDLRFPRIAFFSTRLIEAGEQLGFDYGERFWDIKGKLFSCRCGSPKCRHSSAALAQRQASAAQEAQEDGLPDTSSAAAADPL

B1: CRKL (protein, UniProt P46109 1-303, looked up)
Crk-like protein: MSSARFDSSDRSAWYMGPVSRQEAQTRLQGQRHGMFLVRDSSTCPGDYVLSVSENSRVSHYIINSLPNRRFKIGDQEFDHLPALLEFYKIHYLDTTTLIEPAPRYPSPPMGSVSAPNLPTAEDNLEYVRTLYDFPGNDAEDLPFKKGEILVIIEKPEEQWWSARNKDGRVGMIPVPYVEKLVRSSPHGKHGNRNSNSYGIPEPAHAYAQPQTTTPLPAVSGSPGAAITPLPSTQNGPVFAKAIQKRVPCAYDKTALALEVGDIVKVTRMNINGQWEGEVNGRKGLFPFTHVKIFDPQNPDENE
B2: DDX5 (protein, UniProt P17844 1-614, looked up)
Probable ATP-dependent RNA …: MSGYSSDRDRGRDRGFGAPRFGGSRAGPLSGKKFGNPGEKLVKKKWNLDELPKFEKNFYQEHPDLARRTAQEVETYRRSKEITVRGHNCPKPVLNFYEANFPANVMDVIARQNFTEPTAIQAQGWPVALSGLDMVGVAQTGSGKTLSYLLPAIVHINHQPFLERGDGPICLVLAPTRELAQQVQQVAAEYCRACRLKSTCIYGGAPKGPQIRDLERGVEICIATPGRLIDFLECGKTNLRRTTYLVLDEADRMLDMGFEPQIRKIVDQIRPDRQTLMWSATWPKEVRQLAEDFLKDYIHINIGALELSANHNILQIVDVCHDVEKDEKLIRLMEEIMSEKENKTIVFVETKRRCDELTRKMRRDGWPAMGIHGDKSQQERDWVLNEFKHGKAPILIATDVASRGLDVEDVKFVINYDYPNSSEDYIHRIGRTARSTKTGTAYTFFTPNNIKQVSDLISVLREANQAINPKLLQLVEDRGSGRSRGRGGMKDDRRDRYSAGKRGGFNTFRDRENYDRGYSSLLKRDFGAKTQNGVYSAANYTNGSFGSNFVSAGIQTSFRTGNPTGTYQNGYDSTQQYGSNVPNMHNGMNQQAYAYPATAAAPMIGYPMPTGYSQ
B3: HNRPDL (protein, UniProt O14979 1-420, looked up)
Heterogeneous nuclear …: MEVPPRLSHVPPPLFPSAPATLASRSLSHWRPRPPRQLAPLLPSLAPSSARQGARRAQRHVTAQQPSRLAGGAAIKGGRRRRPDLFRRHFKSSSIQRSAAAAAATRTARQHPPADSSVTMEDMNEYSNIEEFAEGSKINASKNQQDDGKMFIGGLSWDTSKKDLTEYLSRFGEVVDCTIKTDPVTGRSRGFGFVLFKDAASVDKVLELKEHKLDGKLIDPKRAKALKGKEPPKKVFVGGLSPDTSEEQIKEYFGAFGEIENIELPMDTKTNERRGFCFITYTDEEPVKKLLESRYHQIGSGKCEIKVAQPKEVYRQQQQQQKGGRGAAAGGRGGTRGRGRGQGQNWNQGFNNYYDQGYGNYNSAYGGDQNYSGYGGYDYTGYNYGNYGYGQGYADYSGQQSTYGKASRGGGNHQNNYQPY
B4: SEC23B (protein, UniProt Q15437 2-767, looked up)
Protein transport protein …: ATYLEFIQQNEERDGVRFSWNVWPSSRLEATRMVVPLACLLTPLKERPDLPPVQYEPVLCSRPTCKAVLNPLCQVDYRAKLWACNFCFQRNQFPPAYGGISEVNQPAELMPQFSTIEYVIQRGAQSPLIFLYVVDTCLEEDDLQALKESLQMSLSLLPPDALVGLITFGRMVQVHELSCEGISKSYVFRGTKDLTAKQIQDMLGLTKPAMPMQQARPAQPQEHPFASSRFLQPVHKIDMNLTDLLGELQRDPWPVTQGKRPLRSTGVALSIAVGLLEGTFPNTGARIMLFTGGPPTQGPGMVVGDELKIPIRSWHDIEKDNARFMKKATKHYEMLANRTAANGHCIDIYACALDQTGLLEMKCCANLTGGYMVMGDSFNTSLFKQTFQRIFTKDFNGDFRMAFGATLDVKTSRELKIAGAIGPCVSLNVKGPCVSENELGVGGTSQWKICGLDPTSTLGIYFEVVNQHNTPIPQGGRGAIQFVTHYQHSSTQRRIRVTTIARNWADVQSQLRHIEAAFDQEAAAVLMARLGVFRAESEEGPDVLRWLDRQLIRLCQKFGQYNKEDPTSFRLSDSFSLYPQFMFHLRRSPFLQVFNNSPDESSYYRHHFARQDLTQSLIMIQPILYSYSFHGPPEPVLLDSSSILADRILLMDTFFQIVIYLGETIAQWRKAGYQDMPEYENFKHLLQAPLDDAQEILQARFPMPRYINTEHGGSQARFLLSKVNPSQTHNNLYAWGQETGAPILTDDVSLQVFMDHLKKLAVSSAC

The molecules below were run against T1, G9a and GLP (assay: Triple SILAC pull-down after UNC0638 treatment of 293T cells, DMSO/UNC0638 ratio of protein captured by 3×MBT). Conditions: SILAC ratio DMSO/UNC0638 of protein pulled down with 3xMBT; UNC0638 in heavy SILAC media.
Assay type: cell-based
Set-up: cells were treated for 24 hours with UNC0638 at 2.5 μM or DMSO vehicle control; endogenous in cells; host or cells: HEK 293T
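Wherever 3xMBT/D355N UNC Heavy is given: proteins quantified with MaxQuant, requiring at least two unique peptides and quantification in both label directions, normalized to the mean of proteins from a digested loading control.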
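Wherever 3xMBT/D355N UNC Light is given: proteins quantified with MaxQuant, requiring at least two unique peptides and quantification in both label directions, normalized to the mean of proteins from a digested loading control.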
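Wherever Relative to UNC0638 Average is given: mass spectrometry (Q-Exactive) SILAC quantitation, DMSO/UNC0638 ratio computed after subtracting 3×MBTD355N mutant pull-down background, only proteins with at least twofold 3×MBT over mutant signal considered.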
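Wherever Relative to UNC0638 UNC Heavy is given: mass spectrometry (Q-Exactive) SILAC quantitation, DMSO/UNC0638 ratio computed after subtracting 3×MBTD355N mutant pull-down background, only proteins with at least twofold 3×MBT over mutant signal considered.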
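Wherever Relative to UNC0638 UNC Light is given: mass spectrometry (Q-Exactive) SILAC quantitation, DMSO/UNC0638 ratio computed after subtracting 3×MBTD355N mutant pull-down background, only proteins with at least twofold 3×MBT over mutant signal considered.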

Going from B1 to B2, the “Relative to UNC0638 UNC Heavy” value falls from 0.37 log base 2 to 0.31 log base 2.

Going from B3 to B4, the “Relative to UNC0638 UNC Heavy” value rises from 0.16 log base 2 to 0.17 log base 2.

Same assay, conditions: SILAC ratio DMSO/UNC0638 of protein pulled down with 3xMBT; UNC0638 in light SILAC media

Going from B1 to B2, the “Relative to UNC0638 UNC Light” value rises from 0.03 log base 2 to 0.10 log base 2.

B3 and B4 are the same in “Relative to UNC0638 UNC Light” value: 0.24 log base 2 for the first, 0.24 log base 2 for the second.

Same assay, conditions: average of UNC Light and UNC Heavy experiments

B1 and B2 are the same in “Relative to UNC0638 Average” value: 0.20 log base 2 for the first, 0.20 log base 2 for the second.

First: B3
Second: B4
The “Relative to UNC0638 Average” value of the first is lower: 0.20 log base 2 for the first, 0.21 log base 2 for the second.

The molecules below were run on 3×MBT domain of L3MBTL1 (assay: Triple SILAC pull-down, 3xMBT/3xMBTD355N ratio (cytoplasmic, nuclear and chromatin fractions of 293T cells)). Conditions: SILAC ratio, pull-down 3xMBT vs 3xMBTD355N; experiment with UNC0638 in heavy SILAC media.
Assay type: binding, human

Compared with B1, B2 is higher in “3xMBT/D355N UNC Heavy” value: 1.16 log base 2 for the first, 3.00 log base 2 for the second.

Going from B3 to B4, the “3xMBT/D355N UNC Heavy” value rises from 2.81 log base 2 to 3.24 log base 2.

Same assay, conditions: SILAC ratio, pull-down 3xMBT vs 3xMBTD355N; experiment with UNC0638 in light SILAC media

Going from B1 to B2, the “3xMBT/D355N UNC Light” value rises from 1.59 log base 2 to 2.92 log base 2.

Compared with B3, B4 is higher in “3xMBT/D355N UNC Light” value: 3.02 log base 2 for the first, 3.16 log base 2 for the second.
